Measurements taken from patent CN115057931A (GUANGZHOU YUHENG BIOTECHNOLOGY CO LTD, dated 2022).

T1: human LAG-3, full length, on transfected cells (human, UniProt P18627 23-525)
T1 sequence: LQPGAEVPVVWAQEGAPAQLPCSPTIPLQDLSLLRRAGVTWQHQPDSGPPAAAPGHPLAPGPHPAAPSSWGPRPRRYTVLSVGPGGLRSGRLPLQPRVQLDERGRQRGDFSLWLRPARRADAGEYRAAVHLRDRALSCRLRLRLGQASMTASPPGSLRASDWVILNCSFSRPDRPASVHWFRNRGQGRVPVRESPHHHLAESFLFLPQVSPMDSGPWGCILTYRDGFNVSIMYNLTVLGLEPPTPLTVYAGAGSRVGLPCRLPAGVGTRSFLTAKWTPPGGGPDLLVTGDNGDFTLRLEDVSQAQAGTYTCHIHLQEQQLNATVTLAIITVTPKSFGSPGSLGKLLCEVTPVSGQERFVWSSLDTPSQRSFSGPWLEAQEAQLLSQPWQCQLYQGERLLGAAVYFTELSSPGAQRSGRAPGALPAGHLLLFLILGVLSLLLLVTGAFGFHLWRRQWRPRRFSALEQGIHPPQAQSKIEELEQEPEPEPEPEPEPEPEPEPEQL

T2: mouse LAG-3 on Flp-In-CHO cells (mouse, UniProt Q61790 24-521)
T2 construct: whole, on cells; also called 鼠LAG-3; 细胞表面小鼠LAG-3
T2 sequence (looked up): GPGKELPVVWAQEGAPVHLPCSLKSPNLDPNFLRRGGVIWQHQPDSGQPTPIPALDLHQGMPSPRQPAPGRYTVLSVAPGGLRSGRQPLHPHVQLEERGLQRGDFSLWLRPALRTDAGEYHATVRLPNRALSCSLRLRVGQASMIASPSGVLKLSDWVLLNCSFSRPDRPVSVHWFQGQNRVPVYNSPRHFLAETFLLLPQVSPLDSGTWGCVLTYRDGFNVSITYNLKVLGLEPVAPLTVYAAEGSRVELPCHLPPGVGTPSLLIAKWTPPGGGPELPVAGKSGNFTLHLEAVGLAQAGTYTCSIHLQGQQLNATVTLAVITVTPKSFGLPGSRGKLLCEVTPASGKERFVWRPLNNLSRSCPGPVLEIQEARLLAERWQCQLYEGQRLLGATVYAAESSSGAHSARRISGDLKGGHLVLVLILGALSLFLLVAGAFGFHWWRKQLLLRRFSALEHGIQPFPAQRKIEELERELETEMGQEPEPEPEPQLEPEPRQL


Legend:
[1] = target: T1, human LAG-3, full length, on …; assay: cell-based or functional assay
human CD4 = target: T3, human CD4 (human, UniProt P01730 26-390, limits assumed); assay: ELISA, plate coated with 1 μg/mL human CD4
T3 construct: also called 人CD4蛋白

[2] = target: T4, cynomolgus LAG-3 on 293F cells (cynomolgus monkey); assay: FACS on 293F cells expressing cynomolgus LAG-3
T4 construct: whole, on cells; also called 食蟹猴LAG-3; 细胞表面食蟹猴LAG-3

[3] = target: T2, mouse LAG-3 on Flp-In-CHO cells; assay: FACS on Flp-In-CHO cells expressing mouse LAG-3

Binder | EC50(nM), IL-2 luciferase reporter in Jurkat cells expressing human LAG-3 with Raji cells and SEE [1] | binding result (human CD4) | EC50 [2] | binding result [3]
3.40.19-uAb-IgG4L (antibody, V domains shown, Fully human antibody from OMT rats; also called 3.40.19-uAb-hIgG4L) VH: QLQLQESGPGLVKPSETLSLTCTVSGDSISSTSYYWGWIRQPPGKGLEWIGSFYYSGSTYYNPSLKSRVTISVDTSKNQFSLKLNSVTAADTAVYYCARMQLWSYDVDVWGQGTTVTVSS VL: QSALTQPASVSGSPGQSITISCTGTSSDVGGYDYVAWYQQHPGKVPKLMIYDVSERPSGVSNRFSGSKSGNTASLTISGLQAEDEADYYCSSYTSTTTLVVFGGGTKLSVL | 0.21 nM | no binding (tested: 1μg/mL) | 3.92 nM | 
1.53.3-uAb-IgG4k (antibody, V domains shown, Fully human antibody from OMT rats; the other pair 15/16 goes with CDRs 7-12 in CLM-00002) VH: QVQLQQWGAGLLKPSETLSLTCGVYGGSFSGYYWSWIRQPPGMGLEWIGEINHRGNTNYNPSLKSRVTISEDTSKNQFSLRLSSVTAADTAVYFCTRGEDYSDYDYYGDFWGQGTLVTVSS VL: EIVLTQSPATLSLSQGERATLSCRASQSISSYLAWYQQKPGQAPRLLIYAASNRATGIPARFSGSGSGTDFTLTISSLEPEDFAIYYCQQRSNWPLTFGGGTKVEIK | 1.07 nM | no binding (tested: 1μg/mL) | 4.01 nM | no binding
